Experiments:
[1] = tested on: T1, CCCCCCCCCCCCCCCC(=O)SCCNC(=O)CCNC(=O)[C@H](O)C(C)(C)COP(=O)(O)OP(=O)(O)OC[C@H]1O[C@@H](n2cnc3c(N)ncnc32)[C@H](O)[C@@H]1OP(=O)(O)O; assay: Michaelis-Menten kinetics of purified enzyme (KM); assay type: biochemical, Pseudomonas aeruginosa; details: FAD
T1 construct: full-length ORF, His6 tag removed by TEV

[2] = tested on: T2, CCCCCCCC(=O)SCCNC(=O)CCNC(=O)[C@H](O)C(C)(C)COP(=O)(O)OP(=O)(O)OC[C@H]1O[C@@H](n2cnc3c(N)ncnc32)[C@H](O)[C@@H]1OP(=O)(O)O; assay: purified protein; assay type: biochemical, Pseudomonas aeruginosa; details: FAD sandwiched between catalytic Glu441 and the FAD
T2 construct: full-length ORF, His6 tag removed by TEV

[3] = target: FadE1 (PA0506), fatty acyl-CoA dehydrogenase of Pseudomonas aeruginosa (Pseudomonas aeruginosa PAO1); assay: AUC; sedimentation at 50000 rpm, 20 °C; protein at 1 mg/mL in 20 mM Tris-HCl, 100 mM NaCl, 10 mM imidazole (pH 7.5); absorbance and interference scans; analysis with SEDFIT; His6 tags removed
[4] = target: FadE2 (PA0508), fatty acyl-CoA dehydrogenase of Pseudomonas aeruginosa (Pseudomonas aeruginosa PAO1); assay: as above

With FadE1 (Pseudomonas aeruginosa PAO1) as the substance, how does the Km [1] read?
The Km was 16.36 ± 2.09 µM.

And the Km [2]?
The Km was 12.29 ± 1.43 µM.

For “FadE1 (PA0506), fatty acyl-CoA dehydrogenase of Pseudomonas aeruginosa (enzyme)”, which stoichiometry N [3] is on record?
The stoichiometry N was 2.

With “FadE2 (PA0508), fatty acyl-CoA dehydrogenase of Pseudomonas aeruginosa (enzyme)” as the substance, how does the stoichiometry N [4] read?
Its stoichiometry N is 2.

Reference: paper PMC11890623, “Pseudomonas aeruginosa acyl-CoA dehydrogenases and structure-guided inversion of their substrate specificity” (Nature Communications, 2025)
